Results: patent US20190112375A1 (Bristol-Myers Squibb, published 2019)
Residue numbers refer to the chain shown, from its start. Numbers in names are those of the source. Each block holds one binder with its values, some of them ahead of it.

Tests used:
[1] = biological target: T1, human TIGIT (soluble, SPR; construct not stated) (human, UniProt Q495A1 22-141, limits assumed); experiment: SPR
T1 construct: whole entry named; also called huTIGIT
T1 sequence: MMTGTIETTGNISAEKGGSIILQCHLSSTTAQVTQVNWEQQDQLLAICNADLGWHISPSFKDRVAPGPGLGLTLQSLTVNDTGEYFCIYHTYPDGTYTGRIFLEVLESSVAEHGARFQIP

[2] = biological target: T2, recombinant human TIGIT (rhTIGIT/Fc) (human, UniProt Q495A1 22-141); experiment: SPR, mAb captured on anti-kappa chip, rhTIGIT/Fc analyte
T2 construct: also called TIGIT antigen (rhTIGIT/Fc); not shown: Fc part
T2 sequence: T1 sequence
Experimental: Binding of anti-huTIGIT antibodies to soluble human TIGIT was determined by BIACORE® surface plasmon resonance (SPR) analysis. […] The capture concentration of the mAb/volume was 2-40 μg/mL (5 μL at 10 μL/min). The antigen association time was 5 minutes at 15 μL/min, the antigen dissociation time was 6 minutes, and regeneration was performed with 50 mM HCl/50 mM NaOH (12 μL each at 100 μL/min).

[3] = biological target: T1, human TIGIT (soluble, SPR; construct …); experiment: SPR, full titration curves, subcloned and purified antibody
[4] = biological target: T3, cynomolgus monkey TIGIT on cells (cynomolgus monkey, UniProt A0A7N9I9V4 89-312); experiment: binding to monkey CD8+ T cells; monkey CD8+ T cells; lower end of the range
T3 construct: whole, on cells; also called TIGIT from cynomolgus monkeys expressed on CHO cells; cyno TIGIT on primary cells

[5] = biological target: T4, huTIGIT-muFc fusion protein (human; mouse, UniProt Q495A1 22-141); experiment: blockade of TIGIT-mFc (at its EC90, 12.8 nM) binding to P815 cells over-expressing human Nectin-2; competitor: human Nectin-2; P815 cells over-expressing human Nectin-2; TIGIT-mFc at EC90 12.8 nM
T4 construct: also called TIGIT-mFc; not shown: mouse IgG2a Fc, at the C-terminus of the TIGIT part
T4 sequence: T1 sequence

[6] = biological target: T3, cynomolgus monkey TIGIT on cells; experiment: method not stated; follows the sentence on TIGIT expressed on CHO cells; monkey TIGIT; KD, method not stated
human TIGIT on cells [7] = biological target: T5, human TIGIT on cells (human, UniProt Q495A1 22-244); experiment: method not stated; follows the sentence on TIGIT expressed on CHO cells; human TIGIT; KD, method not stated
T5 construct: also called huTIGIT on Jurkat cells; Jurkat/hTIGIT
T5 sequence: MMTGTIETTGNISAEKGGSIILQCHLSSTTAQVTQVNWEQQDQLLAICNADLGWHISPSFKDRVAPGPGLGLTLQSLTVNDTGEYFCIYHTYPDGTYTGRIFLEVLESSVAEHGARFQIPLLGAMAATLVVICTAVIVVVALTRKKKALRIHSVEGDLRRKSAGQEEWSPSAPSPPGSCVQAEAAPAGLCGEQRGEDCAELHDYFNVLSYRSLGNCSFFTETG

[8] = biological target: hCD16b-NA2 (FcγRIIIB-NA2) (human, UniProt O75015 17-200, limits assumed); experiment: Fcγ receptor binding as % of theoretical maximum response (% Rmax), two lots, two concentrations (10 µM, 1 µM); no negative control shown
[9] = biological target: hCD16a-V158 (FcγRIIIA-V158) (human, UniProt P08637 17-208); experiment: as above
[10] = biological target: T6, hCD32a-H131 (FcγRIIA-H131) (human, UniProt P12318 36-218, limits assumed); experiment: as above
T6 sequence (looked up): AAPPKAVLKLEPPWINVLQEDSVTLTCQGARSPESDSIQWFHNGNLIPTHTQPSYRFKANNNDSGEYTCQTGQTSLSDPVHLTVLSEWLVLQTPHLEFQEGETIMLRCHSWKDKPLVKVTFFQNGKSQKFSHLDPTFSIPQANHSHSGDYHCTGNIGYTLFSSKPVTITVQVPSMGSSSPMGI

[11] = biological target: T3, cynomolgus monkey TIGIT on cells; experiment: binding to monkey CD8+ T cells; monkey CD8+ T cells; upper end of the range
human TIGIT on cells [12] = biological target: T5, human TIGIT on cells; experiment: binding to human CD8+ T cells; human CD8+ T cells
[13] = biological target: T4, huTIGIT-muFc fusion protein; experiment: blockade of TIGIT-mFc (at its EC90, 14.1 nM) binding to P815 cells over-expressing human PVR; competitor: human PVR; P815 cells over-expressing human PVR; TIGIT-mFc at EC90 14.1 nM
human TIGIT on cells [14] = biological target: T5, human TIGIT on cells; experiment: cell-based or functional assay
[15] = biological target: T1, human TIGIT (soluble, SPR; construct …); experiment: SPR; remark: listed apart in the source
cynomolgus monkey TIGIT = biological target: T7, cynomolgus monkey TIGIT (cynomolgus monkey); experiment: SPR
T7 construct: also called cyno TIGIT

B1: 15A6 IgG1.1f (antibody)
heavy: QLQLQESGPGLVKPSETLSLTCTVSGGSISSSRYFWGWIRQPPGKGLEWIGYIYYRGSTYYNPSLKSRVTIAVDTSKNQFSLKLSSVTAADTAVYYCASSSAWYFDYWGQGNLVTVSSASTKGPSVFPLAPSSKSTSGGTAALGCLVKDYFPEPVTVSWNSGALTSGVHTFPAVLQSSGLYSLSSVVTVPSSSLGTQTYICNVNHKPSNTKVDKRVEPKSCDKTHTCPPCPAPEAEGAPSVFLFPPKPKDTLMISRTPEVTCVVVDVSHEDPEVKFNWYVDGVEVHNAKTKPREEQYNSTYRVVSVLTVLHQDWLNGKEYKCKVSNKALPSSIEKTISKAKGQPREPQVYTLPPSREEMTKNQVSLTCLVKGFYPSDIAVEWESNGQPENNYKTTPPVLDSDGSFFLYSKLTVDKSRWQQGNVFSCSVMHEALHNHYTQKSLSLSPG
VL: not shown
notes: kappa light chain
- Kd [1]: 1.5 nM
- koff [1]: 0.0016 s⁻¹
- kon [1]: 1.1e+06 M⁻¹ s⁻¹

B3: 15A6 A72S & N112T IgG1.1f (antibody)
heavy: B1 heavy with A72S, N112T
VL: not shown
notes: kappa light chain; also called 15A6 VH domain A72S N112T
- Kd [1]: 2 nM
- koff [1]: 0.002 s⁻¹
- kon [1]: 1e+06 M⁻¹ s⁻¹

B5: 10D7 (antibody, V domains shown)
VH: QGQLVQSGAEVKKPGSSVKVSCKASGGIFRNYAISWVRQAPGQGLEWMGGIIPFFGTANYAQKFQGRVTITADESTSTAYMELSSLRSEDTAVYYCARGGAAAGTTRYGYYYYGMDVWGQGTTVTVSS
VL: DIQMTQSPSSLSASVGDRVTITCRASQGISSWLAWYQQKPEKAPKSLIYAASSLQSGVPSRFSGSGSGTDFTLTISSLQPEDFATYYCQQYNSYPITFGQGTRLEIK
notes: fully human mAb from KM mouse hybridoma; also called anti-huTIGIT mAb 10D7
- Kd [2]: 38.1 nM
- koff [2]: 0.00651 s⁻¹
- kon [2]: 171000 M⁻¹ s⁻¹

B6: 15A6 (antibody, V domains shown)
VH: QLQLQESGPGLVKPSETLSLTCTVSGGSISSSRYFWGWIRQPPGKGLEWIGYIYYRGSTYYNPSLKSRVTIAVDTSKNQFSLKLSSVTAADTAVYYCASSSAWYFDYWGQGNLVTVSS
VL: not shown
notes: fully human mAb from KM mouse hybridoma, kappa light chain; also called anti-huTIGIT mAb 15A6
- Kd [3]: 1.5 nM
- Kd [2]: 19.9 nM
- koff [2]: 0.00404 s⁻¹
- kon [2]: 202000 M⁻¹ s⁻¹

B7: 11G11 (antibody, V domains shown)
VH: QLQLQESGPGLVKPSETLSLTCTVSGGSISSSSHYWGWIRQPPGKGLEWIGNIFYSGHTYYNPSLKSRVTISVDTSKNQFSLKLSSVTAADTAVYYCARQGLLWFGGLSPYYFDYWGQGTLVTVSS
VL: EIVLTQSPATLSLSPGERATLSCRASQSVSSYLAWYQQKPGQAPRLLIYDASNRATGIPARFSGSGSGTDFTLTISSLEPEDFAVYYCQQRSNWPTFGQGTKLEIK
notes: fully human mAb from KM mouse hybridoma; also called anti-huTIGIT mAb 11G11
- Kd [2]: 28.7 nM
- koff [2]: 0.00144 s⁻¹
- kon [2]: 50300 M⁻¹ s⁻¹

B8: 22G2 IgG1.1f (antibody)
heavy: QVHLQESGPGLVKPSETLSLTCTVSGGSVSSGIYYWSWIRQPPGKGLEWIGYIYYSGSTNYNPSLKSRVTISVDTSKNQFSLKLSSVTAADTAVYYCARDYYVSGNYYNVDYYFFGVDVWGQGTTVTVSSASTKGPSVFPLAPSSKSTSGGTAALGCLVKDYFPEPVTVSWNSGALTSGVHTFPAVLQSSGLYSLSSVVTVPSSSLGTQTYICNVNHKPSNTKVDKRVEPKSCDKTHTCPPCPAPEAEGAPSVFLFPPKPKDTLMISRTPEVTCVVVDVSHEDPEVKFNWYVDGVEVHNAKTKPREEQYNSTYRVVSVLTVLHQDWLNGKEYKCKVSNKALPSSIEKTISKAKGQPREPQVYTLPPSREEMTKNQVSLTCLVKGFYPSDIAVEWESNGQPENNYKTTPPVLDSDGSFFLYSKLTVDKSRWQQGNVFSCSVMHEALHNHYTQKSLSLSPG
light: not shown
notes: effectorless IgG1.1f (L234A, L235E, G237A, A330S, P331S, EU numbering); also called anti-TIGIT mAb 22G2 IgG1.1f; antibody 22G2 IgG1.1f; copies: 2 + 2
- EC50 [4]: ≥ 0.28 nM
- IC50 [5]: 5.72 nM
- Kd [6]: 0.07 nM
- Kd (human TIGIT on cells [7]): 0.09 nM
- binding result [8]: no binding (tested: 10 µM)
- binding result [9]: no binding (tested: 10 µM)
- binding result [10]: no binding (tested: 10 µM)
- Kd [1]: 0.07 nM
- koff [1]: 0.00013 s⁻¹
- kon [1]: 2e+06 M⁻¹ s⁻¹
- EC50 [11]: ≤ 0.58 nM
- EC50 (human TIGIT on cells [12]): 0.55 nM
- IC50 [13]: 15.4 nM

Next, values leading:

- Kd [1]: 1.5 nM
- koff [1]: 0.0017 s⁻¹
- kon [1]: 1.1e+06 M⁻¹ s⁻¹
B2: 15A6 A72S IgG1.1f (antibody)
heavy: B1 heavy with A72S
VL: not shown
notes: kappa light chain; also called 15A6 VH domain A72S

- Kd [1]: 1.7 nM
- koff [1]: 0.0019 s⁻¹
- kon [1]: 1.1e+06 M⁻¹ s⁻¹
B4: 15A6 N112T IgG1.1f (antibody)
heavy: B1 heavy with N112T
VL: not shown
notes: kappa light chain; also called 15A6 VH domain N112T

- Kd [1]: 0.08 nM
- koff [1]: 0.00016 s⁻¹
- kon [1]: 2e+06 M⁻¹ s⁻¹
B9: 22G2 H3Q IgG1.1f (antibody)
heavy: B8 heavy with H3Q
light: not shown
notes: kappa constant tied to the 22G2 light chain only by claim 4; also called 22G2 VH domain H3Q, isotype IgG1.1f

- Kd [3]: 0.09 nM
- Bioassay of Jurkat/hTIGIT cells, block of PVR signaling, IC50 (human TIGIT on cells [14]): 0.21 nM
- Kd [15]: 0.06 nM
- Kd (cynomolgus monkey TIGIT): 0.09 nM
- Kd [2]: 0.17 nM
- koff [2]: 0.000403 s⁻¹
- kon [2]: 2.37e+06 M⁻¹ s⁻¹
B10: 22G2 (antibody, V domains shown)
VH: QVHLQESGPGLVKPSETLSLTCTVSGGSVSSGIYYWSWIRQPPGKGLEWIGYIYYSGSTNYNPSLKSRVTISVDTSKNQFSLKLSSVTAADTAVYYCARDYYVSGNYYNVDYYFFGVDVWGQGTTVTVSS
VL: EIVLTQSPATLSLSPGERATLSCRASQSVSSYLAWYQQKPGQAPRLLIYDASNRATGIPARFSGSGSGTDFTLTISSLEPEDFAVYYCQQRSNWPPLFTFGPGTKVDIK
notes: fully human mAb from KM mouse hybridoma, kappa light chain; also called anti-huTIGIT mAb 22G2; antibody 22G2

- Kd [1]: 0.16 nM
- koff [1]: 0.0003 s⁻¹
- kon [1]: 1.9e+06 M⁻¹ s⁻¹
B11: 22G2 H3Q IgG1 (antibody)
heavy: B10 VH with H3Q
light: not shown
notes: isotype printed as IgG1 (perhaps IgG1f); kappa constant tied to the 22G2 light chain only by claim 4; also called 22G2 VH domain H3Q, isotype IgG1; not shown: human IgG1 constant region
